# Results as given in article PMC12363810.
# Molecular target: proliferating cell nuclear antigen (PCNA), Saccharomyces cerevisiae (Saccharomyces cerevisiae) (UniProt P15873)
# Assay: single-molecule correlative force and fluorescence microscopy
# Sequence of UniProt P15873 (P15873 whole entry): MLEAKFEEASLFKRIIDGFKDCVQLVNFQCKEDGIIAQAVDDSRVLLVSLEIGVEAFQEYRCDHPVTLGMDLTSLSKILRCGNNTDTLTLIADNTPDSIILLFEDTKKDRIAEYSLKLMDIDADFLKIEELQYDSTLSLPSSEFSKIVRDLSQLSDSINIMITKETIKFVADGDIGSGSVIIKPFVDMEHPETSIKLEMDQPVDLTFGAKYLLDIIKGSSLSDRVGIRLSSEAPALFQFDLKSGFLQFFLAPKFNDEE
substance,measurement,value
"replication factor C (RFC), Saccharomyces cerevisiae, full-length (from UniProt P38630 1-861) (complex)",tethers with RFC along the path of fill-in together with PCNA (of 14 tethers),9
